{
  "source": "patent US20230416343A1",
  "about": "(SORRENTO THERAPEUTICS, published 2023)",
  "key": {"[1]": {"biological_target": "T1, SARS-CoV-2 D614G mutant spike protein expressed on HEK293 cells (SARS-CoV-2, UniProt P0DTC2 14-1273)"}, "[2]": {"biological_target": "SARS-CoV-2 spike protein expressed on HEK293 cells (SARS-CoV-2, UniProt P0DTC2 14-1273)"}, "[3]": {"biological_target": "S protein of live SARS-CoV-2 strain 2020001 (spike protein having the D614G mutation) (SARS-CoV-2, UniProt P0DTC2 14-1273)", "assay": "cell-based or functional assay"}, "[4]": {"biological_target": "S protein of live SARS-CoV-2 Alpha variant virus (SARS-CoV-2, UniProt P0DTC2 14-1273)", "assay": "cell-based or functional assay"}, "[5]": {"biological_target": "SARS-CoV-2 variant spike protein triple mutant K417N, E484K, and N501Y on HEK293 cells (SARS-CoV-2, UniProt P0DTC2 14-1273)"}, "[6]": {"biological_target": "T1, SARS-CoV-2 D614G mutant spike protein …", "remark": "listed apart in the source"}, "[7]": {"biological_target": "SARS-CoV-2 variant spike protein S494P on HEK293 cells (SARS-CoV-2, UniProt P0DTC2 14-1273)"}, "[8]": {"biological_target": "SARS-CoV-2 variant spike protein E484K on HEK293 cells (SARS-CoV-2, UniProt P0DTC2 14-1273)"}, "[9]": {"biological_target": "SARS-CoV-2 variant spike protein F490S on HEK293 cells (SARS-CoV-2, UniProt P0DTC2 14-1273)"}},
  "note": "“And” between values parts separate entries of the source, which are not always exact repeats. Identical values can stand only once. Like-named read-outs stand apart in the source and are kept apart here.",
  "data": [
    {"binder": "S1D7270LALA antibody (STI-2020) (antibody, V domains shown) VH: EVQLVESGGGLIQPGGSLRLSCAASGFTVSSNYMSWVRQAPGKGLEWVSIIYPGGSTEYADSVKGRFTISRDNSRNTLYLQMNSLRAEDTAVYYCARELGYYGMDVWGQGTTVTVSS VL: DIQMTQSPSSVSASVGDRVTITCRASQGISTWLVWYQQKPGKAPNLLIYGASSLQSGVPSRFSGSGSGTDFTLTISSLQPEDFATYYCQQANAYPYTFGQGTKLEIK", "values": [
      {"measurement": "EC50", "setting": "[1]", "result": 0.13, "unit": "µg/mL"},
      {"measurement": "EC50", "setting": "[2]", "result": 0.12, "unit": "µg/mL"},
      {"measurement": "IC50, inhibition of cytopathic effect (CPE) on Vero E6 cells, live virus", "setting": "[3]", "result": 0.055, "unit": "µg/mL"},
      {"measurement": "IC50, plaque reduction neutralization test on Vero E6 cells, live virus", "setting": "[4]", "result": "0.00908 µg/mL and 0.0164 µg/mL"},
      {"measurement": "EC50", "setting": "[5]", "result": "> 10000", "unit": "µg/mL"},
      {"measurement": "EC50", "setting": "[6]", "result": 130, "unit": "µg/mL"},
      {"measurement": "EC50", "setting": "[7]", "result": 131, "unit": "µg/mL"},
      {"measurement": "EC50", "setting": "[8]", "result": 140, "unit": "µg/mL"},
      {"measurement": "EC50", "setting": "[9]", "result": 48, "unit": "µg/mL"}
    ]}
  ]
}
